{"source": "IntAct's records for PubMed 24132237", "molecular_target": "wasf2_human WASF2 (UniProt Q9Y6W5)", "data": [{"substance": "Ras-related C3 botulinum toxin substrate 1 (Homo sapiens) (from UniProt P63000-1) Q61L", "values": [{"measurement": "effect of a mutation on the interaction", "result": "increasing interaction strength"}]}]}
